Assay results: patent publication US10117916B2, “Peptides and combination of peptides for use in immunotherapy against CLL and other cancers” (immatics biotechnologies GmbH, priority 2015, dated 2018)

These substances were tested against HLA-A*02:01 (Homo sapiens, UniProt P04439, D140Y/D185E/D98H/E176V/E277Q/G131W/G231S/I119V/I121R/I166T/I218V/L300P/L318F/N151K/N90K/P208A/P217A/Q86G/Q94H/R138H/R169H/T345S) (assay: MHC binding assay: UV-ligand exchange with β2m ELISA (peptide exchange yield)). Conditions: MHC class I binding score; binding to HLA-A*02:01 ranged by peptide exchange yield (UV-ligand exchange, β2m ELISA).
Procedure, shortened: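 Exchange yield is an ELISA read-out: complexes diluted 100-fold, captured on streptavidin plates, detected with HRP anti-β2m and TMB at 450 nm. Standard curve from refolded HLA-A*02:01/MLA-001 (15-500 ng/ml); complexes made by UV-triggered displacement of a photolabile ligand by test peptide.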

Row | Substance | Peptide Exchange
1 | 12 (ALGEDEITL; listed as Homo sapiens) [compound 12] | ″+++″ (≥50 = +++)
2 | 187 (VMDTHLVNI; listed as Homo sapiens) [compound 187] | ″++++″ (≥75% = ++++)
3 | 278 (YLDDLLPKL; listed as Homo sapiens) [compound 278] | ″+++″ (≥50 = +++)
4 | 242 (ILLGIQELL; listed as Homo sapiens) [compound 242] | ″+++″ (≥50 = +++)
5 | 37 (FIMEGGAMVL; listed as Homo sapiens) [compound 37] | ″++++″ (≥75% = ++++)
6 | 194 (YLDNVLAEL; listed as Homo sapiens) [compound 194] | ″++++″ (≥75% = ++++)
7 | 165 (TLDDDLDTV; listed as Homo sapiens) [compound 165] | ″++″ (≥20% = ++)
8 | 359 (FMQDPMEVFV; listed as Homo sapiens) [compound 359] | ″+++″ (≥50 = +++)
9 | 266 (TLLDQLDTQL; listed as Homo sapiens) [compound 266] | ″++″ (≥20% = ++)
10 | 221 (ALVSTIIMV; listed as Homo sapiens) [compound 221] | ″+″ (≥10% = +)
11 | 305 (LLFPQIEGIKI; listed as Homo sapiens) [compound 305] | ″+++″ (≥50 = +++)
12 | 256 (QLLPVSNVVSV; listed as Homo sapiens) [compound 256] | ″+++″ (≥50 = +++)
13 | 275 (VLLFIEHSV; listed as Homo sapiens) [compound 275] | ″+++″ (≥50 = +++)
14 | 180 (LLKDGPEIGL; listed as Homo sapiens) [compound 180] | ″++″ (≥20% = ++)
15 | 209 (ILQAELPSL; listed as Homo sapiens) [compound 209] | ″+++″ (≥50 = +++)
16 | 103 (KLGGTPAPA; listed as Homo sapiens) [compound 103] | ″++″ (≥20% = ++)
17 | 319 (QVIPQLQTV; listed as Homo sapiens) [compound 319] | ″+++″ (≥50 = +++)
18 | 276 (VLNDGAPNV; listed as Homo sapiens) [compound 276] | ″+++″ (≥50 = +++)
19 | 358 (FLTDYLNDL; listed as Homo sapiens) [compound 358] | ″+++″ (≥50 = +++)
20 | 58 (YIQQGIFSV; listed as Homo sapiens) [compound 58] | ″+++″ (≥50 = +++)
21 | 150 (SLFDQPLSII; listed as Homo sapiens) [compound 150] | ″+++″ (≥50 = +++)
22 | 23 (ALYLTEVFL; listed as Homo sapiens) [compound 23] | ″++++″ (≥75% = ++++)
23 | 145 (SALDTITTV; listed as Homo sapiens) [compound 145] | ″+++″ (≥50 = +++)
24 | 344 (VLAFENPQV; listed as Homo sapiens) [compound 344] | ″+++″ (≥50 = +++)
25 | 128 (LLSEEEYHL; listed as Homo sapiens) [compound 128] | ″+++″ (≥50 = +++)
26 | 24 (AMAGDVVYA; listed as Homo sapiens) [compound 24] | ″+++″ (≥50 = +++)

Row | Substance | Peptide Exchange
27 | 277 (VMILKLPFL; listed as Homo sapiens) [compound 277] | ″++″ (≥20% = ++)
28 | 293 (ALDIMIPMV; listed as Homo sapiens) [compound 293] | ″+++″ (≥50 = +++)
29 | 204 (GLLQINDKIAL; listed as Homo sapiens) [compound 204] | ″+++″ (≥50 = +++)
30 | 140 (QIAELPATSV; listed as Homo sapiens) [compound 140] | ″+++″ (≥50 = +++)
31 | 76 (GLLRIIPYL; listed as Homo sapiens) [compound 76] | ″+++″ (≥50 = +++)
32 | 108 (VIYTLIHYI; listed as Homo sapiens) [compound 108] | ″+++″ (≥50 = +++)
33 | 361 (ILQEFESKL; listed as Homo sapiens) [compound 361] | ″+++″ (≥50 = +++)
34 | 72 (GLLDAGKMYV; listed as Homo sapiens) [compound 72] | ″+++″ (≥50 = +++)
35 | 163 (SQLDISEPYKV; listed as Homo sapiens) [compound 163] | ″+++″ (≥50 = +++)
36 | 179 (VLLGLEMTL; listed as Homo sapiens) [compound 179] | ″+++″ (≥50 = +++)
37 | 303 (ILSQPTPSL; listed as Homo sapiens) [compound 303] | ″+++″ (≥50 = +++)
38 | 173 (TVIENIHTI; listed as Homo sapiens) [compound 173] | ″++″ (≥20% = ++)
39 | 227 (FLAEASVMTQL; listed as Homo sapiens) [compound 227] | ″+++″ (≥50 = +++)
40 | 166 (TLDPNQVSL; listed as Homo sapiens) [compound 166] | ″++″ (≥20% = ++)
41 | 182 (VLLSVPGPPV; listed as Homo sapiens) [compound 182] | ″+++″ (≥50 = +++)
42 | 230 (FLQDSKVIFV; listed as Homo sapiens) [compound 230] | ″+++″ (≥50 = +++)
43 | 223 (ALWVSQPPEI; listed as Homo sapiens) [compound 223] | ″+++″ (≥50 = +++)
44 | 284 (LLSAAEPVPA; listed as Homo sapiens) [compound 284] | ″++″ (≥20% = ++)
45 | 45 (FLPELPADLEA; listed as Homo sapiens) [compound 45] | ″+++″ (≥50 = +++)
46 | 162 (SMKDDLENV; listed as Homo sapiens) [compound 162] | ″++″ (≥20% = ++)
47 | 292 (AAALIIHHV; listed as Homo sapiens) [compound 292] | ″+++″ (≥50 = +++)
48 | 176 (VLAEQNIIPSA; listed as Homo sapiens) [compound 176] | ″+++″ (≥50 = +++)
49 | 70 (FVPDTPVGV; listed as Homo sapiens) [compound 70] | ″+++″ (≥50 = +++)
50 | 118 (RLLILENILL; listed as Homo sapiens) [compound 118] | ″+++″ (≥50 = +++)
51 | 39 (FLDALLTDV; listed as Homo sapiens) [compound 39] | ″+++″ (≥50 = +++)
52 | 27 (AVLGLVWLL; listed as Homo sapiens) [compound 27] | ″+++″ (≥50 = +++)

Row | Substance | Peptide Exchange
53 | 85 (HLMLHTAAL; listed as Homo sapiens) [compound 85] | ″++++″ (≥75% = ++++)
54 | 283 (ILQPMDIHV; listed as Homo sapiens) [compound 283] | ″+++″ (≥50 = +++)
55 | 367 (NLWSLVAKV; listed as Homo sapiens) [compound 367] | ″+++″ (≥50 = +++)
56 | 43 (FLLGPEALSFA; listed as Homo sapiens) [compound 43] | ″++++″ (≥75% = ++++)
57 | 219 (ALLNLLESA; listed as Homo sapiens) [compound 219] | ″+++″ (≥50 = +++)
58 | 291 (ILLNEDDLVTI; listed as Homo sapiens) [compound 291] | ″+++″ (≥50 = +++)
59 | 363 (ITTEVVNELYV; listed as Homo sapiens) [compound 363] | ″+++″ (≥50 = +++)
60 | 3 (VIAELPPKV; listed as Homo sapiens) [compound 3] | ″++″ (≥20% = ++)
61 | 171 (TLVPPAALISI; listed as Homo sapiens) [compound 171] | ″+++″ (≥50 = +++)
62 | 346 (VLVQVSPSL; listed as Homo sapiens) [compound 346] | ″+++″ (≥50 = +++)
63 | 328 (VLLPQETAEIHL; listed as Homo sapiens) [compound 328] | ″++++″ (≥75% = ++++)
64 | 364 (KMDWIFHTI; listed as Homo sapiens) [compound 364] | ″+++″ (≥50 = +++)
65 | 383 (YLLREWVNL; listed as Homo sapiens) [compound 383] | ″++++″ (≥75% = ++++)
66 | 51 (FLVEAPHDWDL; listed as Homo sapiens) [compound 51] | ″++++″ (≥75% = ++++)
67 | 11 (ALFTFSPLTV; listed as Homo sapiens) [compound 11] | ″+++″ (≥50 = +++)
68 | 73 (GLLEVISALQL; listed as Homo sapiens) [compound 73] | ″+++″ (≥50 = +++)
69 | 373 (TLLADQGEIRV; listed as Homo sapiens) [compound 373] | ″++″ (≥20% = ++)
70 | 385 (YTIPLAIKL; listed as Homo sapiens) [compound 385] | ″+++″ (≥50 = +++)
71 | 168 (YLLDQSFVM; listed as Homo sapiens) [compound 168] | ″++++″ (≥75% = ++++)
72 | 248 (KTVEPPISQV; listed as Homo sapiens) [compound 248] | ″++″ (≥20% = ++)
73 | 196 (YLLLQTYVL; listed as Homo sapiens) [compound 196] | ″+″ (≥10% = +)
74 | 262 (SLWNAGTSV; listed as Homo sapiens) [compound 262] | ″+++″ (≥50 = +++)
75 | 139 (NLTDVVEKL; listed as Homo sapiens) [compound 139] | ″+++″ (≥50 = +++)
76 | 158 (SLPEAPLDV; listed as Homo sapiens) [compound 158] | ″+++″ (≥50 = +++)
77 | 334 (YLLEEKIASL; listed as Homo sapiens) [compound 334] | ″+++″ (≥50 = +++)
78 | 255 (YLFEEAISM; listed as Homo sapiens) [compound 255] | ″+++″ (≥50 = +++)
